Reference: paper PMC7276532, “C-terminal eYFP fusion impairs Escherichia coli MinE function” (Open Biology, 2020)
Values belong to the binder of their own block, whether it stands above or below them.

Assays:
Strep-MinD^D40AΔ10 = target: T1, Strep-MinD^D40AΔ10 (E. coli, UniProt P0AEZ3 1-260, D40A); test: pull-down; about 5 µM His-MinE or His-MinE-eYFP on MagneHis beads with 3 µM Strep-MinD^D40AΔ10, with ATP (1 mM), 5 mM MgCl2, 50 mM HEPES-KOH pH 7.25, 150 mM KCl, 10% glycerol, room temperature, 15 min; eluted with imidazole; conditions: both partners purified
T1 construct: MinD, E. coli, with D40A and lacking the last 10 amino acids; the reverse primer anneals 33 nucleotides upstream of the stop codon of minD; Cloned into the pET28a backbone without the region between NcoI and HindIII, so without the His and T7 tags; also called MinD^D40Δ10; source: E. coli Rosetta (DE3) pLysS, purified (Strep-Tactin cartridge, desalting); not shown: Strep-tag, N-terminal, kept
T1 sequence (looked up): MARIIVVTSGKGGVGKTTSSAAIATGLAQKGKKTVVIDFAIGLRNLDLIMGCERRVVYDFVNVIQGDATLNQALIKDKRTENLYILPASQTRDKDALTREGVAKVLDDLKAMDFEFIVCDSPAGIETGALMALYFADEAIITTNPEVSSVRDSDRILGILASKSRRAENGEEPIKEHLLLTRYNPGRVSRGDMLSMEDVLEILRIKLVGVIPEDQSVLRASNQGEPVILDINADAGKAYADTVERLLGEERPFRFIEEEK

[1] = target: the molecule itself; test: SEC; Superdex 200, 13 µM protein injected, 50 mM HEPES-KOH pH 7.25, 150 mM KCl, 0.1 mM EDTA, 10% glycerol, room temperature; size judged against BSA (66 kDa) and carbonic anhydrase (29 kDa)

binding result (Strep-MinD^D40AΔ10): binds
B1: His-MinE (natural protein, E. coli, UniProt P0A734 1-88, looked up)
chain: MALLDFFLSRKKNTANIAKERLQIIVAERRRSDAEPHYLPQLRKDILEVICKYVQIDPEMVTVQLEQKDGDISILELNVTLPEAEELK
notes: MinE, E. coli; the minE gene amplified from the MG1655 genome into pET28a (BamHI/HindIII); 88 amino acids; The same construct as m1, with the His-tag kept for the pull-down; source: E. coli Rosetta (DE3) pLysS, purified (IMAC nickel column, desalting); not shown: His6, N-terminal, kept

B2: MinE (untagged MinE; His-tag removed with thrombin) (natural protein, E. coli, UniProt P0A734 1-88, looked up)
chain: B1 chain
notes: MinE, E. coli; the minE gene amplified from the MG1655 genome into pET28a (BamHI/HindIII); 88 amino acids; Eluted as a tetramer in SEC; also called wild-type; source: E. coli Rosetta (DE3) pLysS, purified (IMAC nickel column, desalting), His-tag removed with thrombin; not shown: His6, N-terminal, cleaved
stoichiometry N [1]: 4
